Each block holds one binder with its values, some of them ahead of it.
Tests used:
Test in all cases: ELISA on coated B7 family protein
[1] = molecular target: T1, Recombinant human VISTA/B7H5/PD-1H Fc chimera (R&D, 7126-B7-050) (human, UniProt Q9H7M9 33-194)
T1 construct: Bought
Procedure: (§1) B7 family proteins (see Table 7 for details) were respectively diluted to […] with PBS, added into a 96-well plate (Corning, #9018) at 100 μl/well, and incubated at 4° C. overnight. After the liquid was discarded, the plate was washed 3 times with a PBST buffer (pH 7.4, containing 0.05% tween-20), 250 μl of blocking solution containing 2% BSA was added, and the plate was incubated for 1 hour at 37° C. The blocking solution was discarded, the plate was washed 3 times with PBST buffer (pH 7.4, containing 0.05% Tween-20), the antigen-binding protein to be tested was diluted to 2 concentrations of 10 nM and 1 nM, 100 μl of the diluted antigen-binding protein was added to each well, and the plate was incubated for 1 hour at 37° C., with the isotype antibody as the control. After the plate was washed 3 times with PBST buffer (pH 7.4, containing 0.05% Tween-20), goat anti-human HRP secondary antibody (Invitrogen, #A18805) diluted 5000 times was added, and the plate was incubated at 37° C. for 1 hour in the dark. After the plate was washed 3 times with PBST buffer (pH 7.4, containing 0.05% tween-20), TMB (Biopanda, #TMB-S-003) was added at 100 μl/well, and the plate was placed at room temperature for about 30 minutes in the dark; and a stop solution (BBI life sciences, #E661006-0200) was added to each well at 50 μl/well to stop the reaction, and the absorbance at 450 nm (OD450) was determined in a microplate reader (PerkinElemer, #Enspire).

[2] = molecular target: T2, Human B7-1/CD80 protein, Fc tag (Acro, B71-H5259) (human, UniProt P33681 35-242)
T2 construct: Bought
T2 sequence (looked up): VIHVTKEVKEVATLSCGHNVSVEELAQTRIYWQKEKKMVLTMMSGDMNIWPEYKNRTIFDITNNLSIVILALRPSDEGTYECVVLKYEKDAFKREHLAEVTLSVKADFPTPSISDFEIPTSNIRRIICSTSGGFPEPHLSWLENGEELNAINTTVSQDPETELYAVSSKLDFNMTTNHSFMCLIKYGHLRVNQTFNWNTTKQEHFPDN
Procedure: as §1

[3] = molecular target: T3, CD275/ICOS ligand protein, human, recombinant (Fc tag) (Sino Biological, 11559-H02H) (human, UniProt O75144 19-258)
T3 construct: Bought; also called B7H2
T3 sequence (looked up): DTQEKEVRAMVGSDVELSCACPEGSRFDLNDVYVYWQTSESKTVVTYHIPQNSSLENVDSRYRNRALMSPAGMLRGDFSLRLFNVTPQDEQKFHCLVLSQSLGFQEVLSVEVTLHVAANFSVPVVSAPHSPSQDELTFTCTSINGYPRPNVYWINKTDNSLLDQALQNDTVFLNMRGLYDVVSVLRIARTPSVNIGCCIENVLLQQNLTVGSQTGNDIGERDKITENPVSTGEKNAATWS
Procedure: as §1

[4] = molecular target: T4, Recombinant human B7H4 Fc chimera (R&D, 8870-B7-050) (human, UniProt Q7Z7D3 29-258)
T4 construct: Bought
T4 sequence (looked up): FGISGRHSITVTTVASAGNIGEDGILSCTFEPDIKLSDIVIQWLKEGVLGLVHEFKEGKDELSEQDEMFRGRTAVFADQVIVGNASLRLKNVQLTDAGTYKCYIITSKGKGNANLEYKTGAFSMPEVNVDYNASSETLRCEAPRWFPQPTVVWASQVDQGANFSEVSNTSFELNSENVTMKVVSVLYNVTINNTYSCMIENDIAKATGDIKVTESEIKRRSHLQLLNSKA
Procedure: as §1

[5] = molecular target: T5, B7-H3/CD276 protein, human, recombinant (ECD, Fc tag) (Sino Biological, 11188-H02H) (human, UniProt Q5ZPR3 29-466)
T5 construct: extracellular domain; Bought
T5 sequence (looked up): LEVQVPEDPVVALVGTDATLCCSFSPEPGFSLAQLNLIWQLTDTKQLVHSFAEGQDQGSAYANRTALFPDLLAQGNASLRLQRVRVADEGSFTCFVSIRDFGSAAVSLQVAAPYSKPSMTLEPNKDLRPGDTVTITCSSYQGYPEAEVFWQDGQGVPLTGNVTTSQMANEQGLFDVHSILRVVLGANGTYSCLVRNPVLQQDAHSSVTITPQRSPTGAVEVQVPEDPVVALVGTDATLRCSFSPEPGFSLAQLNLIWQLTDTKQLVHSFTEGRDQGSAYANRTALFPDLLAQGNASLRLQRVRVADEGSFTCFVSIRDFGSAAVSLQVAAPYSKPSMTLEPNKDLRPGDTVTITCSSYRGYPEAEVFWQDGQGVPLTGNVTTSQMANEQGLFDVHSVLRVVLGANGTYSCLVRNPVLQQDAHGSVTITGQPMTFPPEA
Procedure: as §1

[6] = molecular target: T6, Human B7-2/CD86 protein, Fc tag (Acro, CD6-H5257) (human, UniProt P42081 26-247)
T6 construct: Bought
T6 sequence (looked up): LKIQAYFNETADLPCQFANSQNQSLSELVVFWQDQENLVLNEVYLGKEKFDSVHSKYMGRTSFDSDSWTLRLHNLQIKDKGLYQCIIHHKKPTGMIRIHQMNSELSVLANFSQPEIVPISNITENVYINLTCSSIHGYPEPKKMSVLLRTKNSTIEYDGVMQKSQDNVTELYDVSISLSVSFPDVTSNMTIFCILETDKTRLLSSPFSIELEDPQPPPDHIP
Procedure: as §1

[7] = molecular target: T7, B7-H6 /NCR3LG1 protein, human, recombinant (Fc tag) (Sino Biological, 16140-H02H) (human, UniProt Q68D85 25-262)
T7 construct: Bought
T7 sequence (looked up): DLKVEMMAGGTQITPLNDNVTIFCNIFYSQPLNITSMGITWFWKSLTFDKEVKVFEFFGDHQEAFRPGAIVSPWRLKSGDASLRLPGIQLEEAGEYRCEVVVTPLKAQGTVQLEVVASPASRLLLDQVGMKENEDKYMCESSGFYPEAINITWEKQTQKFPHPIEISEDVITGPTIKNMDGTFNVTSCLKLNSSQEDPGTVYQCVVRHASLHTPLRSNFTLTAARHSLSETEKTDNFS
Procedure: as §1

binding result [1]: no binding (tested: 10 nM)
binding result [2]: no binding (tested: 10 nM)
binding result [3]: no binding (tested: 10 nM)
binding result [4]: no binding (tested: 10 nM)
binding result [5]: no binding (tested: 10 nM)
binding result [6]: no binding (tested: 10 nM)
binding result [7]: no binding (tested: 10 nM)
B1: PR004263 (antibody, human IgG1, kappa, L234A L235A)
heavy: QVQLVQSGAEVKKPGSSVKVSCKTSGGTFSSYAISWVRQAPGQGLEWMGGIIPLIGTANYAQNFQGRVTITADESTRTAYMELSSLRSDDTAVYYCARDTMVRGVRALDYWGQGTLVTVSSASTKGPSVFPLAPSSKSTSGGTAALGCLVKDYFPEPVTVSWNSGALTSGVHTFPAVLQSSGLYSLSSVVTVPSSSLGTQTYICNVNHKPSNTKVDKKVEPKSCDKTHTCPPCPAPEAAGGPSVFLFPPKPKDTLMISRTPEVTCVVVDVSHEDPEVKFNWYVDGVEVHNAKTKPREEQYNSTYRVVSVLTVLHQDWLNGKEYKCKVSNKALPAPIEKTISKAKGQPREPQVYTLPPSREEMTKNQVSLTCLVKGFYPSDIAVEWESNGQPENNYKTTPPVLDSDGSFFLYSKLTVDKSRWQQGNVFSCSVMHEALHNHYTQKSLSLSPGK
light: DIQLTQSPSFLSASVGDRVTITCRASQGISSYFAWYQQKPGKAPKLLIYAASTLQSGVPSRFSGSGSGTEFTLTISSLQPEDFATYYCQHLNRYPWTFGQGTKVEIKRTVAAPSVFIFPPSDEQLKSGTASVVCLLNNFYPREAKVQWKVDNALQSGNSQESVTEQDSKDSTYSLSSTLTLSKADYEKHKVYACEVTHQGLSSPVTKSFNRGEC
notes: Variant of PR003264; Human IgG1 with LALA mutation in Fc

binding result [1]: no binding (tested: 10 nM)
binding result [2]: no binding (tested: 10 nM)
binding result [3]: no binding (tested: 10 nM)
binding result [4]: no binding (tested: 10 nM)
binding result [5]: no binding (tested: 10 nM)
binding result [6]: no binding (tested: 10 nM)
binding result [7]: no binding (tested: 10 nM)
B2: PR004260 (antibody, human IgG1, kappa, L234A L235A)
heavy: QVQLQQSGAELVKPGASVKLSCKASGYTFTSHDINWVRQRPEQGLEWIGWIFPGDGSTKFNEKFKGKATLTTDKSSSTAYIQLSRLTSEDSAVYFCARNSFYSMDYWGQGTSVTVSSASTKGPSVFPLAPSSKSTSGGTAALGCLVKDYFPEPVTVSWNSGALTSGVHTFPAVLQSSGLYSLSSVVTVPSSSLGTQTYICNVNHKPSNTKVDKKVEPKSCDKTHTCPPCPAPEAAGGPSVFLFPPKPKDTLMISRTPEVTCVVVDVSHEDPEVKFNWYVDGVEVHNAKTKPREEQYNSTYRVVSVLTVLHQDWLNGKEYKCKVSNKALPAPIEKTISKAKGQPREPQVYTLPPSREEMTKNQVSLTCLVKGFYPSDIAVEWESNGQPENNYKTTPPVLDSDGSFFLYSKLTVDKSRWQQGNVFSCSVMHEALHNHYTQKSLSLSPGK
light: DIVMSQSPSSLAVSAGEKVTMSCKSSQSLLNSRTRKNQLAWYQQKPGQSPKLLIYWASTRESGVPDRFTGSGSGTDFTLTISSVQAEDLAVYYCKQSYNLRTFGGGTKLEIKRTVAAPSVFIFPPSDEQLKSGTASVVCLLNNFYPREAKVQWKVDNALQSGNSQESVTEQDSKDSTYSLSSTLTLSKADYEKHKVYACEVTHQGLSSPVTKSFNRGEC
notes: Variant of PR003181; Human IgG1 with LALA mutation in Fc

— US20250136696A1 (HARBOUR BIOMED SHANGHAI, published 2025)
